Test results published in the domain aggregation screens of Martell et al. (2025).

Assay: soluble fraction after stress (log2 fold change); higher = more stays soluble; pooled small domains, quantitative proteomics
Settings: stress: 75 degC
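Further: 20 min heating vs room temperature control held 20 min.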

Sequence	soluble fraction (log2)
HMNDLKEDTITVQSVEYIDSDDGTMVYIKDTNHQVYKQAFKEDESLIRISAGDVLHVKYQPMDNEIHLL	-0.341
HMNDMPELLSIKEASQWATEYLNKNVTTSNIAYLIQYGRIRKIGNNGSTQVLKDDLVKYYKDQK	-0.11
HMNDMWADITINANGKATLVVHTHEIKYLGLTGHLGKMEINGTAKEPVKDSSGDVVDYYFTFTDLDASMF	0.328
HMNDNFTPDDLNRLARIKDLPQAKKYALELISNKSAKPMKPEKVRWFANQLQKKKSVMDITKMMYDLLLA	-0.423
HMNDNTAINEFKKMVFTRMVHLQIDNAELSKLSGVTNSKILALKYGNSNTLKLGDIVKVAKTLNINLNDL	-2.86
HMNDPFVILGVSKDASQSEILEAYKQKRAYYQERVFDEGDEGAQAARMLTQLDDAYQQAMELSHES	0.183
HMNDPIESLTPREREVLTLMAEGRTNAAIAAQLVVTEGAVEKHTQHIFAKLGLLPDSAVHRRVKAVLALLS	-2.35
HMNDPNAPITENQLKAIHVLLDKLKVDDNLKHAYIADVLQLDNEPETLKTLTKAQGSMAIERMQLLKDN	0.736
HMNDQLIYSDFIRQVQDGQITEVTISGLNIAGTRSDGSVFNTLRPYIEDPKLIDDLLSHNVRIQGAE	0.168
HMNDRERIGKRIAQLRMEAGISQYKLAELTGLAPGNIARIETGKYSTGIDILSKIGDALGYQLDFI	-2.14
HMNDRLAGMEGQRGEAATNFDQGEGKVKVGDTVWLAKQSDSTVIVEGDQIVVTGSENGLLKVRL	-0.25
HMNDTLGVNIKRLRKEKGMTQDEVAKAVYTTRYNILRYESGKMTPSSEVIERLEKALGVPTGSLAQ	-0.348
HMNDTSLIIDNLMLKLGNNIKNFSEIYSLLRKNLAEYGEEFIKSKVDYVLKNFNDNIEENLKKLLTE	-0.394
HMNDVGKVLNQLGERDRMILLLTYWDELPLKEAARILEVSENNAKIILFRARSRFASLWSAGS	-3.14
HMNEAVVVPDVKGLTLDEADEFFKNSKLRYNVVDSVFSKDVAPGAIVELVPVAGSKVKENRIVFVTINAQ	-0.361
HMNEDTEDIKNINSLVNKLTENNFDIIRDSIVKLINKEHLIPYIIETIIEKSILHHRYVHLYVSILKE	0.219
HMNEDYSSMVGKTGFALTILRPAGKIMIEEEVFDAVAINGYISKGQEVEVVRYENAQLYVKVK	-1.04
HMNEFGIPDKKLQDIETRVNSMSLEQLNAARSMLIDEQEALNSSTGSASSGRLKEIAAELSTIQKALIAIA	-0.00417
HMNEFNEVVPDSLEGERLDRLLAFIGNISRSEASNIIKGGEVLINGKVVTRPSFKVTLGNRVEFSIRD	-0.531
HMNEGETLYRLRAGDGRARLDKFLAAALPDISRTRFKGLIESGHVRVGGETITEPAYRVKSEAEVELTVPE	0.0126
HMNEIALETAIEDVESFIQMQNRNLAFSIDEDTDRAVVTVRDSDSGDVIRQIPSEEVLALAERIQDLQQD	0.0361
HMNEIDDYDIQLLEYLSKGVSQEAMESVFKQAGITPNSKSTIEKRISKLKIYFKALNTTHLVSITKDLGL	-0.647
HMNEKEAEEAAEAQTEVPDVTGMAPAQAKNMLYQAGLSSEYRGEGETVSRQLPPAGETVNRGTKAVLYL	0.0203
HMNEKGTNSTINEITRISKPGRRVYVGSAEIPKVKSGRGLVLISTSKGVMTGAEAAKAKLGGELLLKV	-0.000493
HMNEKMKEIGLRIKELRELSDISAQGMADHLKIPLETYQEYEDGKKDIPASILFEISQKMEVDMGLLLTGE	-0.476
HMNELTDKQILLFSNKLAHNIPFSSKYSKPGESYEEFAERLANELIDPQKVKLYKPYLEEVGFK	0.788
HMNEMIFNQKKIGQFFMNPETNSPMIYPLELGHKMKIIELKNGWYNVTDEKTGLNGWVKEEDFGVTKPLDS	-0.346
HMNENDENLRQQAIDASKEVRRWGEPVTLPPMNAHDRRIIHITLEGESDLQTESTGEGNFKSVVISLK	-0.171

Sequence	soluble fraction (log2)
HMNEPSSYGYAISVALDRNGLGTVKGGTLYPLLARLEQAAHVETRWEAGDGGPGRKYYTITDSGRS	-0.214
HMNERLKQLRLSLNLNQEEFGKWLGISKSGVSDIESGRRKVTEQHIIMLSNHNISEKWLRTGEGEMFV	-1.21
HMNETNKMPNLVNQTDSSAIAQLNAMELGLKITTKEESSETVLAGYVIRTEPAADTELTKNQAVTVYVS	-0.00951
HMNETTVPDVINQNISTGKIIIEDADLEYRIQYIPSEKSSSIGTIINSIPIYGKRVKSGTIVDLKVLG	-0.248
HMNETVTNQTVLDLLKEGFTSEEIIGAIENSSTRTITYDINFMRQLKAAGADVTLTTYLQKIAKKDM	-0.136
HMNEWSIDINLADEKQWTAKTKLSPAIIQNIIRYKNYLGGFTNLNQIKKVYGFTEANYYLLKPHLQLGK	-0.837
HMNFDLDSFKQRMTLDGLYFGNEKQDVIALNNLSERYQLTWFDVYQLAKETSSNHKILPKRILVKLQQ	-2.09
HMNFEIEVTENGKRIDSYLAEELDLSRSKVQKLIKQELVTVNGKVVSNNYNVKLGDTILVNDD	0.113
HMNFFQEIGNSILIELNKKNWTQSMFAHKIGVSDEVFKQIVQGKKALNAVEIAKIANTLDVDPEKLLRK	-1.08
HMNFTEAEQRFHFLEDQRQRGVLSLEQYRAELAQLRVTDAWGRLWMLQEQTGQWFVFHEGQWRPSQ	-0.408
HMNGEDVTDAIRLPQISQYASVVSAYPGVRAFLLEMQRDFARKGSVIMDGRDIGTVVLPEAEVKIFLT	-0.367
HMNGGPHYLRDVRTSLGLSQADLAKAVGTSANMIHYLESGERALTLKWIRRISEALNVSPMRLIN	-2.06
HMNGLPDLSRYTGVSIVDGLASVGSDSSFAYRAKIAETLGISDYKGSAGQNLEMIRKLGGKV	-0.517
HMNGTGSVYKLSGKRRNPWRAVVTNGWAYNEEKGKLVQNRVTIGYYHTRDEAIQAIANYNSSP	-1.53
HMNGVFIMHTPDGKVLRTEEGEEAVITLFNWSGQLLWSKTSLGQLPLPEGTQGVLQVQYKSGDQHTIKT	-1.28
HMNHAPSLMRKIRRGLKEGRNPDDLLVNAKSISDYYYRSLSFYLLAPHFSSKSKQYKQVISLANS	-0.064
HMNHHTEQQLKALSNKVKDHRMRMRLLAVAHFKAGKNKADVARTLNVSRRMVNEWVANYFKGGVSALES	-3.43
HMNHLLYPNPANNFIWIKNSTSNTAVIYNLQGVMSKVEVSEEGKIDISRFSPGLYMIKQGERIYKFTIA	-1.75
HMNHLSYEQRLKIKEMLDGGFKKIDIARALGVHNATIYREIERGSVNGIYNPNKSEEQYRDHLSEK	0.378
HMNHYIGVDRAKEIALNHANLSETDVVFTKEKLENDDGGAEYEIEFHSGRTEYDYTIDAASGNIIEYDVDY	0.324
HMNIDGLIGKKALVTADIDNVNSKGQIKINGLEWTARSVDDEPIPMGTEVEITAISGVKAIVRKG	0.139
HMNIEANLEDILRRAMPSAAKLILENSLNINKIIGTGKEGRITKGDVLLYLKDKNLILENILN	-0.079
HMNIEEAESILKEIKTVLTDKEYEVYTLRAKGFTYQEIASLLNTTTKSVDGALSRIKTKINNIK	-0.674
HMNIFKLYEENIGPLTPMIADILKEDEAEFPDYWIREAIEIAVKKNARNWKYVHAVLESWQKE	-3.47
HMNILKAPMPGLILDVIVKESDLVKKGDPVIILEAMKMENILSSPVDGIVKEIKVNPQQTVEKNNTLIKFE	-0.0843
HMNILNFSENIIKLRHKKGITQEELADFVGVTKASVSKWETKQSLPDIMLLPRLAAYFDVTVDELLGYEP	-2.16
HMNINHEINIKSKKKISILENNPNLSQFYLTKNPDQYNYNLVFSDKSELNKLKEKLESDNEVEDIDIRYG	-0.0517
